Test results published in patent publication US20140017790A1, “CONTROL AGENT FOR CONTROLLING UNDIFFERENTIATED STATE AND USE THEREOF” (RIKEN, priority 2011, published 2014).

Tests used:
Format in all cases: cell-based
human iPS cells = experiment: cell adhesion and growth, number of human iPS cells over time; details: bFGF(-)/CCL2(+) versus bFGF(+)/CCL2(-)
Protocol: Human iPS cells were cultured under feeder conditions in the same manner as in Example 8, and the number of cells was measured every 48 hours. As a negative control, the same procedures were carried out except that bFGF was added instead of the CCL2. FIG. 17 is a graph showing the change with time in the number of the human iPS cells. The vertical axis indicates the number of cells (10^4 cells/ml), and the horizontal axis indicates the culture time (hr). CCL2(+) indicates the results obtained under the conditions of bFGF(−)/CCL2(+), and CCL2(−) indicates the results obtained under the conditions of bFGF(+)/CCL2(−).

mouse iPS cells = experiment: quantitative RT-PCR of undifferentiated marker genes, CCL2 overexpressed in mouse iPS cells; details: CCL2 overexpressed (Ccl2 expression vector), feeder free, 24 hours
Protocol: A PrimeScript RT-PCR Kit (trade name, TAKARA BIO INC.), an ABI 7500 Fast real time PCR system (trade name, Applied BioSystems), and a SYBR (registered trademark) Premix Ex Taq (trade name, TAKARA BIO INC.) were used in accordance with their protocols. PCR was carried out by conducting 40 cycles of treatment with a treatment at 94° C. for 5 second and at 62.5° C. for 20 seconds as 1 cycle. The expression level of each gene was calculated by normalizing the relative amount of mRNA in the gene to Gapdh mRNA according to the 2^−ΔΔ^CT method (Thomse R, Solvsten C A, Linnet T E, et al., Analysis of qPCR data by converting exponentially related Ct values into linearly related XO values. J Bioinform Comput Biol 2010: 8: 885-900.).
In the following manner, CCL2 was overexpressed in the mouse iPS cells, and the expression levels of undifferentiated marker genes were examined. The undifferentiated marker genes were the Ecat1 gene, Cripto gene, Oct3/4 gene, Zfp42 gene, Esg1 gene, Eras gene, Fgf4 gene, Dax1 gene, Nanog gene, Sox2 gene, Klf4 gene, cMyc gene, Tbx3 gene, and Eed gene.
A Ccl2 expression vector that overexpresses CCL2 was constructed. The CCL2 to be expressed was a mouse-derived protein having a full-length amino acid sequence of SEQ ID NO: 3. First, using a Gateway Technology (Invitrogen), a full-length cDNA (SEQ ID NO: 6) coding for the CCL2 was cloned into a pENTER/D-TOPO vector. The cloned sequence was confirmed, and thereafter, the full-length cDNA was inserted into an EF-α1 promoter-containing pEF-DEST51 vector (Invitrogen) using a Gateway LR Clonase II Enzyme Mix (Invitrogen), thus constructing the Ccl2 expression vector. The Ccl2 expression vector was purified using an Endotoxin free Plasmid maxi prep kit (Qiagen) in accordance with its protocol.
Next, the mouse iPS cells cultured under the feeder free conditions were seeded in a 12-well dish at a density of 3×10^5 cells/well. The amount of a medium to be added to the dish was set to 1 ml/well. Then, using 16 μl of a Lipofectamine 2000 (Invitrogen) and 4.8 μg of the Ccl2 expression vector per well, the mouse iPS cells were transfected with the Ccl2 expression vector. These mouse iPS cells were cultured for another 24 hours under feeder free conditions. Thereafter, total RNAs were extracted, and the expression levels of the undifferentiated marker genes were examined. The expressions of the undifferentiated marker genes were examined by the quantitative RT-PCR using the above-described primers. […] Then, the fold changes in expression level relative to the negative control were calculated.

STAT3 = experiment: Western blotting, phosphorylation of STAT3 in human iPS cells; details: feeder conditions, 6 days, negative control (bFGF) = 1
Protocol: The human iPS cells were cultured under feeder conditions in the same manner as in Example 8, and the feeder cells were removed 6 days after the start of the culture. Then, in the same manner as in Example 3, the cultured human iPS cells were washed, suspended, homogenized, and centrifuged to collect the supernatant as a cell extract. Thereafter, a target protein was detected by Western blotting in the same manner as in Example 3, except that the above supernatant was used. Furthermore, as a negative control, the target protein was detected by carrying out the same procedures except that bFGF was added instead of the CCL2.
Then, the ratio of the phosphorylated STAT3 to the non-phosphorylated STAT3 (pSTAT3/STAT3) was determined. Assuming that the value of pSTAT3/STAT3 in the negative control was “1”, the relative value was calculated.

B1: CCL2: mouse recombinant CCL2 (MCP-1, #479-JE-010, R&D Systems); in Examples 1, 3, 4(1), 5 mouse CCL2 (SEQ ID NO: 3) overexpressed from Ccl2 expression vector (protein, listed as Mus musculus)
chain: MQVPVMLLGLLFTVAGWSIHVLAQPDAVNAPLTCCYSFTSKMIPMSRLESYKRITSSRCPKEAVVFVTKLKREVCADPKKEWVQTYIKNLDRNQMRSEPTTLFKTASALRSSAPLNVKLTRKSEANASTTFSTTTSSTSVGVTSVTVN
number of the cells (human iPS cells; as of 48 hours): greater | growth potential (human iPS cells; as of 144 hours (6th day)): improved further | expression of the Klf4 gene, fold change relative to negative control (mouse iPS cells): increased markedly | expression of the Nanog gene, fold change relative to negative control (mouse iPS cells): increased markedly | expression of the Sox2 gene, fold change relative to negative control (mouse iPS cells): increased markedly | expression of the Tbx3 gene, fold change relative to negative control (mouse iPS cells): increased markedly | ratio of phosphorylated STAT3 to non-phosphorylated STAT3 (pSTAT3/STAT3), relative value (STAT3): about 7.5 fold
